Each block holds one binder with its values, some of them ahead of it. Starred links: 1 amine or outer side, 2 acyl side, 3 side chain; linkers in the order of their positions; H or OH if unused. Non-standard residues stand in square brackets, D forms with d. Groups on a side chain read outwards from the residue. No end group written: not given here. *: point of attachment. C18 diacid = O=C(O)CCCCCCCCCCCCCCCCC(=O)*; γGlu = O=C(O)[C@H](CCC(=O)[*:2])N[*:1]; AEEA = NCCOCCOCC(=O)O; Aib = CC(C)(N)C(=O)O
Target: human corticotropin-releasing factor 2α (CRF2 α receptor) (human), Q13324
Assay: cell-based or functional assay

Sequence of human corticotropin-releasing factor 2α (CRF2 α receptor) (human), Q13324 (Q13324 20-411): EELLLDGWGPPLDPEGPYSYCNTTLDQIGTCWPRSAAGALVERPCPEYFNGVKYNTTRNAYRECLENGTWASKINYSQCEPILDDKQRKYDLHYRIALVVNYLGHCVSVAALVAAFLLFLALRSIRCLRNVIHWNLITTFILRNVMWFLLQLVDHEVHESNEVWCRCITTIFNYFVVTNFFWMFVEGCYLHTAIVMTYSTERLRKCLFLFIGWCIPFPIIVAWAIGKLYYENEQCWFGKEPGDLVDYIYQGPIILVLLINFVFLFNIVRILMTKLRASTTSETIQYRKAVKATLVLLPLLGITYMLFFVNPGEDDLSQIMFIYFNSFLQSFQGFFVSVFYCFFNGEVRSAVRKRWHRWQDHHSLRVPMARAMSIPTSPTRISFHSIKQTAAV

- EC50 [nM], 0% HSA: 0.09 nM
- EC50 [nM], 0.1% HSA: 4.94 nM
B1: SEQ ID NO: 152 (peptide)
peptide: IVLSLDVPIKLK([AEEA-AEEA-γGlu-C18 diacid])QILLKQERQKK[Aib]REQAETNKRILERV-NH2
modifications: N-terminus assumed
SMILES: CC[C@H](C)[C@H](N)C(=O)N[C@H](C(=O)N[C@@H](CC(C)C)C(=O)N[C@@H](CO)C(=O)N[C@@H](CC(C)C)C(=O)N[C@@H](CC(=O)O)C(=O)N[C@H](C(=O)N1CCC[C@H]1C(=O)N[C@H](C(=O)N[C@@H](CCCCN)C(=O)N[C@@H](CC(C)C)C(=O)N[C@@H](CCCCNC(=O)COCCOCCNC(=O)COCCOCCNC(=O)CC[C@H](NC(=O)CCCCCCCCCCCCCCCCC(=O)O)C(=O)O)C(=O)N[C@@H](CCC(N)=O)C(=O)N[C@H](C(=O)N[C@@H](CC(C)C)C(=O)N[C@@H](CC(C)C)C(=O)N[C@@H](CCCCN)C(=O)N[C@@H](CCC(N)=O)C(=O)N[C@@H](CCC(=O)O)C(=O)N[C@@H](CCCNC(=N)N)C(=O)N[C@@H](CCC(N)=O)C(=O)N[C@@H](CCCCN)C(=O)N[C@@H](CCCCN)C(=O)NC(C)(C)C(=O)N[C@@H](CCCNC(=N)N)C(=O)N[C@@H](CCC(=O)O)C(=O)N[C@@H](CCC(N)=O)C(=O)N[C@@H](C)C(=O)N[C@@H](CCC(=O)O)C(=O)N[C@H](C(=O)N[C@@H](CC(N)=O)C(=O)N[C@@H](CCCCN)C(=O)N[C@@H](CCCNC(=N)N)C(=O)N[C@H](C(=O)N[C@@H](CC(C)C)C(=O)N[C@@H](CCC(=O)O)C(=O)N[C@@H](CCCNC(=N)N)C(=O)N[C@H](C(N)=O)C(C)C)[C@@H](C)CC)[C@@H](C)O)[C@@H](C)CC)[C@@H](C)CC)C(C)C)C(C)C

- EC50 [nM], 0% HSA: 33.7 nM
B2: SEQ ID NO: 153 (peptide)
peptide: Ac-IVLSLDVPIGLK([AEEA-AEEA-γGlu-C18 diacid])QILLEQEKQEKEKQQAETNAQILAQV-NH2
SMILES: CC[C@H](C)[C@H](NC(C)=O)C(=O)N[C@H](C(=O)N[C@@H](CC(C)C)C(=O)N[C@@H](CO)C(=O)N[C@@H](CC(C)C)C(=O)N[C@@H](CC(=O)O)C(=O)N[C@H](C(=O)N1CCC[C@H]1C(=O)N[C@H](C(=O)NCC(=O)N[C@@H](CC(C)C)C(=O)N[C@@H](CCCCNC(=O)COCCOCCNC(=O)COCCOCCNC(=O)CC[C@H](NC(=O)CCCCCCCCCCCCCCCCC(=O)O)C(=O)O)C(=O)N[C@@H](CCC(N)=O)C(=O)N[C@H](C(=O)N[C@@H](CC(C)C)C(=O)N[C@@H](CC(C)C)C(=O)N[C@@H](CCC(=O)O)C(=O)N[C@@H](CCC(N)=O)C(=O)N[C@@H](CCC(=O)O)C(=O)N[C@@H](CCCCN)C(=O)N[C@@H](CCC(N)=O)C(=O)N[C@@H](CCC(=O)O)C(=O)N[C@@H](CCCCN)C(=O)N[C@@H](CCC(=O)O)C(=O)N[C@@H](CCCCN)C(=O)N[C@@H](CCC(N)=O)C(=O)N[C@@H](CCC(N)=O)C(=O)N[C@@H](C)C(=O)N[C@@H](CCC(=O)O)C(=O)N[C@H](C(=O)N[C@@H](CC(N)=O)C(=O)N[C@@H](C)C(=O)N[C@@H](CCC(N)=O)C(=O)N[C@H](C(=O)N[C@@H](CC(C)C)C(=O)N[C@@H](C)C(=O)N[C@@H](CCC(N)=O)C(=O)N[C@H](C(N)=O)C(C)C)[C@@H](C)CC)[C@@H](C)O)[C@@H](C)CC)[C@@H](C)CC)C(C)C)C(C)C

Source: US12679878B2, “CRF2 receptor agonists and their use in therapy” (SANOFI, priority 2020, dated 2026)
